Details in all cases: both partners purified
The target of test [1] is T1, Truncated human primosome (Pol α 334-1462; B subunit 149-598; PriS 1-420; PriL 1-509) (human, UniProt P09884 334-1462; Q14181 149-598; P49642 1-420; P49643 1-509).
T1 construct: also called truncated primosome; Pol α–primase
The test can be described thus: pull-down.

The target in test [2] is T2, Full-length human primosome (DNA polymerase α–primase complex) (human, UniProt P09884 1-1462; Q14181 1-598; P49642 1-420; P49643 1-509).
T2 construct: also called Pol α–primase; full-length primosome
T2 sequence (Q14181 whole entry, chain 2 of 3): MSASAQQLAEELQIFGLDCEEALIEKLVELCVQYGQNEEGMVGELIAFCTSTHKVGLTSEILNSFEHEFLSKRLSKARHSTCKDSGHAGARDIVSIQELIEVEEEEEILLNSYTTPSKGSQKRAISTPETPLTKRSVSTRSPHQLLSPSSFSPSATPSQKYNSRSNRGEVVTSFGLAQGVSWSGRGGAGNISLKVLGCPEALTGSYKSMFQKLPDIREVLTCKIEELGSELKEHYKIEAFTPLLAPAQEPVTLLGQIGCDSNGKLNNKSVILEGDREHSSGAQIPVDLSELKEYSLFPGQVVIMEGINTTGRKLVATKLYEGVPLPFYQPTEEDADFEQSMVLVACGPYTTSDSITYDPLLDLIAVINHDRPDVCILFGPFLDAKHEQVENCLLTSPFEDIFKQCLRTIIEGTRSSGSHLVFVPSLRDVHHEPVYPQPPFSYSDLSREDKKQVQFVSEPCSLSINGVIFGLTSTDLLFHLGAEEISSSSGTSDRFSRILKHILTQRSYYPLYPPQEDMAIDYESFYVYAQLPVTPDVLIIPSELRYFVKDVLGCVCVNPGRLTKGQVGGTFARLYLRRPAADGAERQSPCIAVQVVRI
T2 sequence (P49642 whole entry, chain 3 of 3): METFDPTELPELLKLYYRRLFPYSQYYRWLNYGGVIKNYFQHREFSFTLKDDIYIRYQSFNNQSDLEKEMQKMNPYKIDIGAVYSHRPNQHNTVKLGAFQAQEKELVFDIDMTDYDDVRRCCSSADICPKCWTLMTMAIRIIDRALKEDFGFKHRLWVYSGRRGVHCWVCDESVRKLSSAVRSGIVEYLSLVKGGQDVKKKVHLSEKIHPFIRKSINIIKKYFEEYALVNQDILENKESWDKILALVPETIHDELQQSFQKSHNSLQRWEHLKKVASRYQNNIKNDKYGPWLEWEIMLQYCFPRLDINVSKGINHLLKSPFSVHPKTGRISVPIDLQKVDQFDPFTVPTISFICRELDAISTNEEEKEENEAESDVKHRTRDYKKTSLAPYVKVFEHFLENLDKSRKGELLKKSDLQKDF
T2 sequence (P49643 whole entry, chain 4 of 3): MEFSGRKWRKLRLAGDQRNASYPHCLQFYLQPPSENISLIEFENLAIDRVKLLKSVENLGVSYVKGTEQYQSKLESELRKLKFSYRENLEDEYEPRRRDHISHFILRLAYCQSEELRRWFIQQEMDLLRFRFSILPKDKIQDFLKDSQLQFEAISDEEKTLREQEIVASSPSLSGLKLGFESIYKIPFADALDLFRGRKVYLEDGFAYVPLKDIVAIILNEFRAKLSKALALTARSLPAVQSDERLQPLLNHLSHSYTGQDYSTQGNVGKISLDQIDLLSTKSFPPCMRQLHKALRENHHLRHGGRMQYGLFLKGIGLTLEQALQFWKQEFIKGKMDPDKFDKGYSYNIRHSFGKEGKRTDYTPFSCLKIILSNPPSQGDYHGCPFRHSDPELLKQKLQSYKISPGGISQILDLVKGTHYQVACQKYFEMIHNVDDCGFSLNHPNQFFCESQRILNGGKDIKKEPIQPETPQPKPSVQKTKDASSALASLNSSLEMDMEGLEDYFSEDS
The test can be described thus: pull-down.

Test [3] addresses T1, Truncated human primosome (Pol α …). The test can be described thus: cryo-EM structure.
Test [4] concerns the target T3, Pol α catalytic subunit (334-1462), as subunit of the truncated human primosome (human, UniProt P09884 334-1462).
T3 construct: also called DNA polymerase α; catalytic subunit of Pol α
T3 sequence (looked up): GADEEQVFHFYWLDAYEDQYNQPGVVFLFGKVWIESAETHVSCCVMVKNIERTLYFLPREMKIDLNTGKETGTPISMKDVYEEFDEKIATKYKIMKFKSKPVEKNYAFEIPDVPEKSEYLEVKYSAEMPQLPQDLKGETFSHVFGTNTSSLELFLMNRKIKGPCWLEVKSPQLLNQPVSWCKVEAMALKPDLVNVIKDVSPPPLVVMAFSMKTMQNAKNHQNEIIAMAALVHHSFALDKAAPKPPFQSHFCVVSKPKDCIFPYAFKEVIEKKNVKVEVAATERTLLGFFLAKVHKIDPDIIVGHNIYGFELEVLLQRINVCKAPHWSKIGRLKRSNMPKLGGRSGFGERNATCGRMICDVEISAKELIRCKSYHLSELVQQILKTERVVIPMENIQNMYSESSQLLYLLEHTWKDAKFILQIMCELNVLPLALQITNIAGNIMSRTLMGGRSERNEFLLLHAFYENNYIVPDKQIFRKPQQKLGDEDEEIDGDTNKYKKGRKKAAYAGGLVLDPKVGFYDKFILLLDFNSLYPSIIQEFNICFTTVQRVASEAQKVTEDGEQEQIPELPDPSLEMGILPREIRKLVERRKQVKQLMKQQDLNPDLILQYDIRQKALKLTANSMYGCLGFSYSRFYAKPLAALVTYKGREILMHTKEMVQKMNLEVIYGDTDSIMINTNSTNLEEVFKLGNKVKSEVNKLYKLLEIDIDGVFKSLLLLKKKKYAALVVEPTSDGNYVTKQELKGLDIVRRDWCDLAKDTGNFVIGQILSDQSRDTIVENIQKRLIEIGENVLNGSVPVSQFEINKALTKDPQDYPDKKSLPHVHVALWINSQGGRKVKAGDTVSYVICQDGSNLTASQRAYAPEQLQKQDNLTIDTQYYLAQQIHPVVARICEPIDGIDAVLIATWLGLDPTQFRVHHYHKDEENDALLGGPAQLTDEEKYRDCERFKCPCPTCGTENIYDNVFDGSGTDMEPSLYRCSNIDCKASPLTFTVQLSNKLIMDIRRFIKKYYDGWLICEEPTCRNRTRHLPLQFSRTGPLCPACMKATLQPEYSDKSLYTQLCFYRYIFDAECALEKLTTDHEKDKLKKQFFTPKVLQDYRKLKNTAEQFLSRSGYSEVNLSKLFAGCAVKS
The test can be described thus: cryo-EM structure.

T1 sequence (Q14181 149-598, chain 2 of 3): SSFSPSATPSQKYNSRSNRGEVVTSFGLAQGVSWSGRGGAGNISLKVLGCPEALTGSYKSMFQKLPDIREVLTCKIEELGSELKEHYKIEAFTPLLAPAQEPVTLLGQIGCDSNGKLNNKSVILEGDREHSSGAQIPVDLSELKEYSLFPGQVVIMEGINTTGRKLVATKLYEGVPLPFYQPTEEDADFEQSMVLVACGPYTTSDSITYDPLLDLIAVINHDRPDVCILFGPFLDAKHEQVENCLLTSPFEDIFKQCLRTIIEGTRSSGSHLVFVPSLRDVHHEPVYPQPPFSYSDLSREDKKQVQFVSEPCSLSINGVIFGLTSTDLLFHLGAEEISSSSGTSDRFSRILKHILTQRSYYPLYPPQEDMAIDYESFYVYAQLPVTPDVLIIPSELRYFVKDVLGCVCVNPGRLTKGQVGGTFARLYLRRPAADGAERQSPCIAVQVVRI
T1 sequence (P49642 whole entry, chain 3 of 3, the tested form may be a part): as the sequence (P49642 whole entry, chain 3 of 3) above
T1 sequence (P49643 whole entry, chain 4 of 3, the tested form may be a part): as the sequence (P49643 whole entry, chain 4 of 3) above

B1: His6-MBP-tagged SARS-CoV nonstructural protein 1 (nsp1), full length (natural protein)
chain: MESLVLGVNEKTHVQLSLPVLQVRDVLVRGFGDSVEEALSEAREHLKNGTCGLVELEKGVLPQLEQPYVFIKRSDALSTNHGHKVVELVAEMDGIQYGRSGITLGVLVPHVGETPIAYRNVLLRKNGNKGAGGHSYGIDLKSYDLGDELGTDPIEDYEQNWNTKHGSGALRELTRELNGG
In the case of B1, the binding result in test [1] and in test [2] was “binds” throughout.

B2: SARS-CoV nsp1 (13-127), His6-MBP tag cleaved (domain or fragment)
chain: HVQLSLPVLQVRDVLVRGFGDSVEEALSEAREHLKNGTCGLVELEKGVLPQLEQPYVFIKRSDALSTNHGHKVVELVAEMDGIQYGRSGITLGVLVPHVGETPIAYRNVLLRKNG
For B2, the binding result in test [3] and in test [4] was “binds” in each case.

B3: His6-MBP-tagged SARS-CoV nsp1 middle domain (13-127) (domain or fragment)
chain: B2 chain
Turning to B3, in test [1], the binding result is “binds”.

B4: His6-MBP-tagged SARS-CoV-2 nsp1 middle domain (13-127) (domain or fragment)
chain: HVQLSLPVLQVRDVLVRGFGDSVEEVLSEARQHLKDGTCGLVEVEKGVLPQLEQPYVFIKRSDARTAPHGHVMVELVAELEGIQYGRSGETLGVLVPHVGEIPVAYRKVLLRKNG
On to B4, for which the binding result in test [1] is “binds”.

The values above are taken from article PMC8661717 (Protein Science : A Publication of the Protein Society, 2021).
